In article doi:10.1101/2022.09.25.509440 (bioRxiv, 2022):

Target: T1, human LRP6-ECD-Fc (human, UniProt O75581 20-1370)
T1 sequence (looked up): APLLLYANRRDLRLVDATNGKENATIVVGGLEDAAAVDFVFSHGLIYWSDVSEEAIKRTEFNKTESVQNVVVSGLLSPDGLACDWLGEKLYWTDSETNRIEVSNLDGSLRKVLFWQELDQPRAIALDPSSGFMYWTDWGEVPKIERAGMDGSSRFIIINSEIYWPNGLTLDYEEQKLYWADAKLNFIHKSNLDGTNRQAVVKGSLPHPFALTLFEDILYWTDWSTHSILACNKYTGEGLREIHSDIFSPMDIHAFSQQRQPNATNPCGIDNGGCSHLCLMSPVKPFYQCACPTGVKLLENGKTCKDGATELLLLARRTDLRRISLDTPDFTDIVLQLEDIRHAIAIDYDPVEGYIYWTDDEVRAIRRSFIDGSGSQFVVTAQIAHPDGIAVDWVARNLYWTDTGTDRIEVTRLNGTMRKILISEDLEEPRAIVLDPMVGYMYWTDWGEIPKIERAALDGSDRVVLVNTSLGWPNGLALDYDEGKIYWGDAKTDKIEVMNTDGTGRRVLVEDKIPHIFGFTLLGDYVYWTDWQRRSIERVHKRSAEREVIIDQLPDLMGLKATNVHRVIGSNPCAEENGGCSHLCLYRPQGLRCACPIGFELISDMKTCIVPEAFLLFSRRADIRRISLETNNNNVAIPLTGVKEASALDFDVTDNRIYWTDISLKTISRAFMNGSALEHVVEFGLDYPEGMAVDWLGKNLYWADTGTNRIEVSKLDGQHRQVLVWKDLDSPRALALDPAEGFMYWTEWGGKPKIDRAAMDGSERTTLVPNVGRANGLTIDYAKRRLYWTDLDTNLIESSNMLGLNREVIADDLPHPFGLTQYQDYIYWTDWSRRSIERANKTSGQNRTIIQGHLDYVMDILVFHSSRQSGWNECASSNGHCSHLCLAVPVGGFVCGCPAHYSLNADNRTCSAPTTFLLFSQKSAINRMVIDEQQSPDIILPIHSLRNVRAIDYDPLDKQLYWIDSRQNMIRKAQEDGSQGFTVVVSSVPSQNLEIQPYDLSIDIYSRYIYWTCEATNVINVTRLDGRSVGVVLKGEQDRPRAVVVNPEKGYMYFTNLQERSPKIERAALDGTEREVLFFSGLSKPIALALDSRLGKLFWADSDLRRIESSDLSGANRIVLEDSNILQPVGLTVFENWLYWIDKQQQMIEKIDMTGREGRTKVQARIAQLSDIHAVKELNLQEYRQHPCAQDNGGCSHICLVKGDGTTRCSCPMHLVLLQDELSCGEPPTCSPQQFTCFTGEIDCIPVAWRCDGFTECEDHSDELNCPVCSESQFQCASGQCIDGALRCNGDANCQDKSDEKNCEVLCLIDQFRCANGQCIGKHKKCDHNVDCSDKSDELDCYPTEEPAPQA
Experiment: BLI

B1: recombinant human Wnt3a (ligand, UniProt P56704 19-352, looked up)
chain: SYPIWWSLAVGPQYSSLGSQPILCASIPGLVPKQLRFCRNYVEIMPSVAEGIKIGIQECQHQFRGRRWNCTTVHDSLAIFGPVLDKATRESAFVHAIASAGVAFAVTRSCAEGTAAICGCSSRHQGSPGKGWKWGGCSEDIEFGGMVSREFADARENRPDARSAMNRHNNEAGRQAIASHMHLKCKCHGLSGSCEVKTCWWSQPDFRAIGDFLKDKYDSASEMVVEKHRESRGWVETLRPRYTYFKVPTERDLVYYEASPNFCEPNPETGSFGTRDRTCNVSSHGIDGCDLLCCGRGHNARAERRREKCRCVFHWCCYVSCQECTRVYDVHTCK
B1: binds.
